Experimental data published in patent publication US20240117030A1 (Pfizer, published 2024).
Numbering of substitutions follows the chain as printed.

T1: recombinant human IL-4 (human, UniProt P05112 25-153)
T1 sequence (looked up): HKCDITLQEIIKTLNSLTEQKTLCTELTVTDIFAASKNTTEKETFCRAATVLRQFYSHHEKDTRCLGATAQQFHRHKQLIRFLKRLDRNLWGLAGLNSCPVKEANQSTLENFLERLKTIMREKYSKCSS

B1: IL413TSLP-0001 (other)
heavy: EVTLRESGPALVKPTQTLTLTCTFSGFSLSNFGEGLSWIRQPPGKGLEWLAHIYWDDDKRYNPSLKSRLTISKDTSRNQVVLTMTNMDPVDTATYYCARRETVFYWYFDVWGQGTTVTVSSASTKGPSVFPEAPSSKSTSGGTAALGCLVKDYFPEPVTVSWNSGALTSGVHTFPAVLQSSGLYSLGSVVTVPSSSLGTQTYICNVNHKPSNTKVDKKVEPKSCDKTHTCPPCPAPEAAGAPSVFLFPPKPKDTLMISRTPEVTCVVVDVSHEDPEVKFNWYVDGVEVHNAKTKPREEQYNSTYRVVSVLTVLHQDWLNGKEYKCKVSNKALPAPIEKTISKAKGQPREPQVYTLPPCREEMTKNQVSLSCAVKGFYPSDIAVEWESNGQPENNYKTTPPVLDSDGSFFLVSKLTVDKSRWQQGNVFSCSVMHEALHNHYTQKSLSLSPGK
chain 1: QMQLVESGGGVVQPGRSLRLSCAASGFTFRTYGMHWVRQAPGKGLEWVAVIWYDGSNKHYADSVKGRFTITRDNSKNTLNLQMNSLRAEDTAVYYCARAPQWELVHEAFDIWGQGTMVTVSSGQPKAAPSVTLFPPSSEELQANKATLVCLISDFYPGAVTVAWKADSSPVKAGVETTTPSKQSNNKYAASSYLSLTPEQWKSHRSYSCQVTHEGSTVEKTVAPTECSGGGGSEVQLVESGGGLVQPGGSLRLSCAASGFTFSSYAMSWVRQAPGKGLEWVASISSGDTTYYPDSVKGRFTISRDNAKNSLYLQMNSLRAEDTAVYYCARNEGYYFGLTLWGQGTLVTVSSASTKGPSVFPKAPSSKSTSGGTAALGCLVKDYFPEPVTVSWNSGALTSGVHTFPAVLQSSGLYSLSSSVTVPSSSLGTQTYICNVNHKPSNTKVDKKVEPKSCDKTHTCPPCPAPEAAGAPSVFLFPPKPKDTLMISRTPEVTCVVVDVSHEDPEVKFNWYVDGVEVHNAKTKPREEQYNSTYRVVSVLTVLHQDWLNGKEYKCKVSNKALPAPIEKTISKAKGQPREPQVCTLPPSREEMTKNQVSLWCLVKGFYPSDIAVEWESNGQPENNYKTTPPVLDSDGSFFLYSKLTVDKSRWQQGNVFSCSVMHEALHNHYTQKSLSLSPGK
light 1: DIQMTQSPSSLSASVGDRVTITCKASQSVDEDGDSYMNWYQQKPGKAPKLLIYAASNLESGVPSRFSGSGSGTDFTLTISSLQPEDFATYYCQQSNEDPPTFGGGTKVEIKRTVAAPSVFIFPPSDEQLKSGTASVSCLLNNFYPREAKVQWKVDNALQSGNSQESVTEQDSKDSTYSLKSTLTLSKADYEKHKVYACEVTHQGLSSPVTKSFNRGEC
light 2: B1 light 1 with Q27E, E31H, D32F, D34W, Y36L, M37V, N38H, A54R, P100W, K180D
chain 2: SYVLTQPPSVSVAPGQTARITCGGNNLGSKSVHWYQQKPGQAPVLVVYDDSDRPSWIPERFSGSNSGNTATLTISRGEAGDEADYYCQVWDSSSDHVVFGGGTKLTVLASTKGPSVFPLAPSSKSTSGGTAALGCLVKDYFPEPVTVSWNSGALTSGVHTFPAVLQSSGLYSLSSVVTVPSSSLGTQTYICNVNHKPSNTKVDKKVEPKSC
B2: IL413TSLP-0007 (other)
heavy: B1 heavy
chain 1: SYVLTQPPSVSVAPGQTARITCGGNNLGSKSVHWYQQKPGQAPVLVVYDDSDRPSWIPERFSGSNSGNTATLTISRGEAGDEADYYCQVWDSSSDHVVFGGGTKLTVLASTKGPSVFPLAPSSKSTSGGTAALGCLVKDYFPEPVTVSWNSGALTSGVHTFPAVLQSSGLYSLSSVVTVPSSSLGTQTYICNVNHKPSNTKVDKKVEPKSCGGGGSEVQLVESGGGLVQPGGSLRLSCAASGFTFSSYAMSWVRQAPGKGLEWVASISSGDTTYYPDSVKGRFTISRDNAKNSLYLQMNSLRAEDTAVYYCARNEGYYFGLTLWGQGTLVTVSSASTKGPSVFPKAPSSKSTSGGTAALGCLVKDYFPEPVTVSWNSGALTSGVHTFPAVLQSSGLYSLSSSVTVPSSSLGTQTYICNVNHKPSNTKVDKKVEPKSCDKTHTCPPCPAPEAAGAPSVFLFPPKPKDTLMISRTPEVTCVVVDVSHEDPEVKFNWYVDGVEVHNAKTKPREEQYNSTYRVVSVLTVLHQDWLNGKEYKCKVSNKALPAPIEKTISKAKGQPREPQVCTLPPSREEMTKNQVSLWCLVKGFYPSDIAVEWESNGQPENNYKTTPPVLDSDGSFFLYSKLTVDKSRWQQGNVFSCSVMHEALHNHYTQKSLSLSPGK
light 1: B1 light 1
light 2: B1 light 1 with Q27E, E31H, D32F, D34W, Y36L, M37V, N38H, A54R, P100W, K180D
chain 2: QMQLVESGGGVVQPGRSLRLSCAASGFTFRTYGMHWVRQAPGKGLEWVAVIWYDGSNKHYADSVKGRFTITRDNSKNTLNLQMNSLRAEDTAVYYCARAPQWELVHEAFDIWGQGTMVTVSSGQPKAAPSVTLFPPSSEELQANKATLVCLISDFYPGAVTVAWKADSSPVKAGVETTTPSKQSNNKYAASSYLSLTPEQWKSHRSYSCQVTHEGSTVEKTVAPTECS
B3: IL413TSLP-0008 (other)
heavy: EVQLVESGGGLVQPGGSLRLSCAASGFTFSSYAMSWVRQAPGKGLEWVASISSGDTTYYPDSVKGRFTISRDNAKNSLYLQMNSLRAEDTAVYYCARNEGYYFGLTLWGQGTLVTVSSASTKGPSVFPKAPSSKSTSGGTAALGCLVKDYFPEPVTVSWNSGALTSGVHTFPAVLQSSGLYSLSSSVTVPSSSLGTQTYICNVNHKPSNTKVDKKVEPKSCDKTHTCPPCPAPEAAGAPSVFLFPPKPKDTLMISRTPEVTCVVVDVSHEDPEVKFNWYVDGVEVHNAKTKPREEQYNSTYRVVSVLTVLHQDWLNGKEYKCKVSNKALPAPIEKTISKAKGQPREPQVCTLPPSREEMTKNQVSLWCLVKGFYPSDIAVEWESNGQPENNYKTTPPVLDSDGSFFLYSKLTVDKSRWQQGNVFSCSVMHEALHNHYTQKSLSLSPGK
chain 1: SYVLTQPPSVSVAPGQTARITCGGNNLGSKSVHWYQQKPGQAPVLVVYDDSDRPSWIPERFSGSNSGNTATLTISRGEAGDEADYYCQVWDSSSDHVVFGGGTKLTVLASTKGPSVFPLAPSSKSTSGGTAALGCLVKDYFPEPVTVSWNSGALTSGVHTFPAVLQSSGLYSLSSVVTVPSSSLGTQTYICNVNHKPSNTKVDKKVEPKSCGGGGSEVTLRESGPALVKPTQTLTLTCTFSGFSLSNFGEGLSWIRQPPGKGLEWLAHIYWDDDKRYNPSLKSRLTISKDTSRNQVVLTMTNMDPVDTATYYCARRETVFYWYFDVWGQGTTVTVSSASTKGPSVFPEAPSSKSTSGGTAALGCLVKDYFPEPVTVSWNSGALTSGVHTFPAVLQSSGLYSLGSVVTVPSSSLGTQTYICNVNHKPSNTKVDKKVEPKSCDKTHTCPPCPAPEAAGAPSVFLFPPKPKDTLMISRTPEVTCVVVDVSHEDPEVKFNWYVDGVEVHNAKTKPREEQYNSTYRVVSVLTVLHQDWLNGKEYKCKVSNKALPAPIEKTISKAKGQPREPQVYTLPPCREEMTKNQVSLSCAVKGFYPSDIAVEWESNGQPENNYKTTPPVLDSDGSFFLVSKLTVDKSRWQQGNVFSCSVMHEALHNHYTQKSLSLSPGK
light 1: B1 light 1 with Q27E, E31H, D32F, D34W, Y36L, M37V, N38H, A54R, P100W, K180D
light 2: B1 light 1
chain 2: B2 chain 2
B4: IL413TSLP-0002 (other)
heavy: B3 heavy
chain 1: QMQLVESGGGVVQPGRSLRLSCAASGFTFRTYGMHWVRQAPGKGLEWVAVIWYDGSNKHYADSVKGRFTITRDNSKNTLNLQMNSLRAEDTAVYYCARAPQWELVHEAFDIWGQGTMVTVSSGQPKAAPSVTLFPPSSEELQANKATLVCLISDFYPGAVTVAWKADSSPVKAGVETTTPSKQSNNKYAASSYLSLTPEQWKSHRSYSCQVTHEGSTVEKTVAPTECSGGGGSEVTLRESGPALVKPTQTLTLTCTFSGFSLSNFGEGLSWIRQPPGKGLEWLAHIYWDDDKRYNPSLKSRLTISKDTSRNQVVLTMTNMDPVDTATYYCARRETVFYWYFDVWGQGTTVTVSSASTKGPSVFPEAPSSKSTSGGTAALGCLVKDYFPEPVTVSWNSGALTSGVHTFPAVLQSSGLYSLGSVVTVPSSSLGTQTYICNVNHKPSNTKVDKKVEPKSCDKTHTCPPCPAPEAAGAPSVFLFPPKPKDTLMISRTPEVTCVVVDVSHEDPEVKFNWYVDGVEVHNAKTKPREEQYNSTYRVVSVLTVLHQDWLNGKEYKCKVSNKALPAPIEKTISKAKGQPREPQVYTLPPCREEMTKNQVSLSCAVKGFYPSDIAVEWESNGQPENNYKTTPPVLDSDGSFFLVSKLTVDKSRWQQGNVFSCSVMHEALHNHYTQKSLSLSPGK
light 1: B1 light 1 with Q27E, E31H, D32F, D34W, Y36L, M37V, N38H, A54R, P100W, K180D
light 2: B1 light 1
chain 2: B1 chain 2

Target: recombinant human IL-13 (human, UniProt P35225 35-146)
Test: cell-based or functional assay

recombinant human IL-13, sequence (P35225 35-146 limits assumed): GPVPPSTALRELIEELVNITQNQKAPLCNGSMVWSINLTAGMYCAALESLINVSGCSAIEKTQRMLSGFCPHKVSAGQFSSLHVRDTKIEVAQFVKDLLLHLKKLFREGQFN

With B1 as the binder, how does the “a-hIL-13 bioassay (IC50, pM)” value read?
Its value is 47 pM.

With B2 as the binder, how does the “a-hIL-13 bioassay (IC50, pM)” value read?
Its value is 46.8 pM.

B3 was tested. Which “a-hIL-13 bioassay (IC50, pM)” value did it give?
Its value is 10.6 pM.

How did the “a-hIL-13 bioassay (IC50, pM)” value turn out when B4 was run?
The value was 10.6 pM.

Target: T1, recombinant human IL-4
Test: cell-based or functional assay

With B1 as the binder, how does the “a-hIL-4 bioassay IC50, pM)” value read?
Its value is 7.15 pM.

B2 was tested. Which “a-hIL-4 bioassay IC50, pM)” value did it give?
The value was 7.09 pM.

With B3 as the binder, how does the “a-hIL-4 bioassay IC50, pM)” value read?
The value was 9.07 pM.

How did the “a-hIL-4 bioassay IC50, pM)” value turn out when B4 was run?
The value was 8.59 pM.

Target: recombinant human TSLP (glycosylated long form) (human, UniProt Q969D9 29-159)
Test: cell-based or functional assay

Which “a-TSLP TARC bioassay (IC50; pM)” value does the source give for B1 here?
Its value is 12.6 pM.

For B2, which “a-TSLP TARC bioassay (IC50; pM)” value is on record?
The value was 11.7 pM.

B3 was tested. Which “a-TSLP TARC bioassay (IC50; pM)” value did it give?
Its value is 17.7 pM.

With B4 as the binder, how does the “a-TSLP TARC bioassay (IC50; pM)” value read?
The value was 16.4 pM.
